The results in this text go back to US20160320391A1 (Genentech, published 2016).

The target in assay [1] is T1, purified recombinant soluble hamster (Cricetulus griseus) phospholipase B-like 2 (PLBL2), his-tagged (hamster (Cricetulus griseus)).
T1 construct: Transiently expressed in CHO-K1 cells and purified from the supernatant; In the rabbit serum assay the protein was biotinylated; also called PLB2; PLBD2; not shown: histidine (his) tag added
T1 chain: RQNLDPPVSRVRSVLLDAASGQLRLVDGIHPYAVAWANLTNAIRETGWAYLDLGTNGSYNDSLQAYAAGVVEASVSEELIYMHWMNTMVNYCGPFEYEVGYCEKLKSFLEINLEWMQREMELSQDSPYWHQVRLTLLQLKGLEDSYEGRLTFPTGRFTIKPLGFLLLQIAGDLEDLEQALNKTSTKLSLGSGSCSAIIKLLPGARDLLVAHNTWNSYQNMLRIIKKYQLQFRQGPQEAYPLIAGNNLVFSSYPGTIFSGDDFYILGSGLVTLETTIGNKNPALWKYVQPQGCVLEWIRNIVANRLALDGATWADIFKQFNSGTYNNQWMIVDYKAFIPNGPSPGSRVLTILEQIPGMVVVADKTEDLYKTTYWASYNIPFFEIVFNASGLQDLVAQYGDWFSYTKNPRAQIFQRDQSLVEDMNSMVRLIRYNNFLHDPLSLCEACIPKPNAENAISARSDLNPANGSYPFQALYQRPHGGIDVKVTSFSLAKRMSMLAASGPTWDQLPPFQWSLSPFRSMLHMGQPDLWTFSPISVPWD
Briefly: sandwich ELISA, biotinylated 15G11 as detection antibody on PLBL2 standard captured by coated 19C10, streptavidin-HRP, OD 450 nm; the value describes the whole sandwich. On the procedure: (§1) An ELISA assay to detect and quantify the CHOP impurity, PLBL2, in recombinant polypeptide samples, such as recombinant antibody or immunoadhesin preparations, was developed. The procedure is as follows. Murine monoclonal antibody 19C10 was coated onto a half area 96-well microtiter plate at a concentration of 0.5 μg/mL in carbonate buffer (0.05M sodium carbonate, pH 9.6), overnight at 2-8° C. After coating, the plate was blocked with Blocking Buffer (0.15M NaCl, 0.1M sodium phosphate, 0.1% fish gelatin, 0.05% polysorbate 20, 0.05% Proclin® 300 [Sigma-Aldrich]; also referred to as Assay Diluent) to prevent non-specific sticking of proteins. […]
(§2) After a 2 hr. incubation step with biotinylated 15G11 at room temperature, Streptavidin HRP (1:200,000 dilution in Assay Diluent) was added to the microtiter plate wells. After a final wash step with Wash Buffer (described above), color was developed (for PLBL2 quantification) by adding a solution of TMB (50 μl/well) (SUREBLUE RESERVE™ from KPL, Kirkegaard & Perry Laboratories, Inc., Gaithersburg, Md., cat no. 53-00-03) followed by incubation at room temperature for 10-20 minutes. […]

Assay [2] has as its target T1, purified recombinant soluble hamster …. Kind of assay: sandwich ELISA, 19C10 coated as capture antibody, PLBL2 standard titrated, detection with biotinylated 15G11 and streptavidin-HRP, OD 450 nm; the value describes the whole sandwich. The method, then: as §1, §2

B1: 15G11 anti-PLBL2 murine monoclonal antibody conjugated to biotin (antibody, mouse IgG1, kappa, V domains shown)
VH: EVKLEESGGGLVQPGGSTKLSCAASGFTFSDAWMDWVRQCPEKGLEWVAEISSKANNRATYYAESVKGRFTISRDDSKSCVYLQMNSLRAEDTGIYYCTRRGYTMDYWGQGTSVTVSS
VL: DIVMTQSQKFMSTSVGDRVSVTCKASQNVDTNVAWYQQKPGQSPKALIFSASYRFSGVPDRFTGSGSGTDFTLTISNVQSEDLAEYFCQQYNNFPFTFGSGTKLELKR
modifications: biotin conjugated with E-Z Link NHS-Biotin; sites not stated
notes: Mouse IgG1, kappa, biotinylated; Used as the detection antibody of the monoclonal PLBL2 ELISA; also called biotinylated 15G11; detection antibody
Consider B1, for which, in assay [1], the “EC50 (read off the curve)” value was ~10 ng/mL.

B2: 19C10 (recombinant murine monoclonal anti-hamster PLBL2 antibody) (antibody, mouse IgG1, kappa, V domains shown)
VH: EVQLQESGPCLVKPSQTLSLTCSVTGDSITSGYWNWIRKFPGNKLESMGYISYSGSTYYNPSLKSRISITRDTSKNQYYLQLNSVTTEDTATYYCARIASWITTYFDYWGQGTTLTVSS
VL: DIVMTQSPAILSVSPGERVSFSCRASQSIGTSIHWYQQRRNGSPRLLIKYASESISGIPSRFSGSGSGTDFILSINSVESEDIADYYCQQSNSWPYTFGGGTKLELKR
notes: Mouse IgG1, kappa, expressed transiently in 293 or CHO cells; also called capture antibody; coat antibody
For the molecule B2, in assay [2], the “EC50 (read off the curve)” value was ~10 ng/mL.
